Substitutions are numbered along the chain they refer to. Names may count otherwise. “And” between values parts separate entries of the source, which are not always exact repeats. Identical values can stand only once.
B1: KB001 parental mouse Fab FASEBA variant VH K64E (Fab, V domains shown)
VH: EVQLKQSGPGLVAPSQSLSITCTVSGFSLSIYSVHWVRQPPGKGLEWLGMIWGGGSSDYNSALESRLSISKDNSKSQVFLKMNSLQTDDTAMYYCARNGNFYAMDYWGQGTSVTVSS
VL: QIVLTQSPAIMSASLGERVTMTCTASSSVSSSFLHWYQQKPGSSPQLWIYSTSNLASGVPARFSGSGSGTSYSLTISSMEAEDAATYYCHQYHHSPYIYTFGGGTKLEIK
B2: KB001 parental mouse Fab FASEBA variant VH S65H (Fab, V domains shown)
VH: B1 VH with E64K, S65H
VL: B1 VL
B3: KB001 parental mouse Fab FASEBA variant VH G99F (Fab, V domains shown)
VH: B1 VH with E64K, G99F
VL: B1 VL
B4: KB001 parental mouse Fab FASEBA variant VH S65P (Fab, V domains shown)
VH: B1 VH with E64K, S65P
VL: B1 VL
B5: KB001 parental mouse Fab FASEBA variant VH S65T (Fab, V domains shown)
VH: B1 VH with E64K, S65T
VL: B1 VL
B6: KB001 parental mouse Fab FASEBA variant VH S65F (Fab, V domains shown)
VH: B1 VH with E64K, S65F
VL: B1 VL
B7: KB001 parental mouse Fab FASEBA variant VH S65G (Fab, V domains shown)
VH: B1 VH with E64K, S65G
VL: B1 VL
B8: KB001 parental mouse Fab FASEBA variant VH S65R (Fab, V domains shown)
VH: B1 VH with E64K, S65R
VL: B1 VL
B9: KB001 parental mouse Fab FASEBA variant VH G99N (Fab, V domains shown)
VH: B1 VH with E64K, G99N
VL: B1 VL
B10: KB001 parental mouse Fab FASEBA variant VH N100P (Fab, V domains shown)
VH: B1 VH with E64K, N100P
VL: B1 VL
B11: KB001 parental mouse Fab FASEBA variant VH G99S (Fab, V domains shown)
VH: B1 VH with E64K, G99S
VL: B1 VL
B12: KB001 parental mouse Fab FASEBA variant VH S65Y (Fab, V domains shown)
VH: B1 VH with E64K, S65Y
VL: B1 VL
B13: KB001 parental mouse Fab FASEBA variant VH G99C (Fab, V domains shown)
VH: B1 VH with E64K, G99C
VL: B1 VL
B14: KB001 parental mouse Fab FASEBA variant VH G99Y (Fab, V domains shown)
VH: B1 VH with E64K, G99Y
VL: B1 VL
B15: KB001 parental mouse Fab FASEBA variant VH G99A (Fab, V domains shown)
VH: B1 VH with E64K, G99A
VL: B1 VL
B16: KB001 parental mouse Fab FASEBA variant VH S65L (Fab, V domains shown)
VH: B1 VH with E64K, S65L
VL: B1 VL

The binders below were run against HRgpA-6H (Porphyromonas gingivalis) (UniProt P28784) (assay: ELISA, FASEBA screening, coated HRgpA-6H 0.0625 ug/ml).
Chain of UniProt P28784 (P28784 228-860): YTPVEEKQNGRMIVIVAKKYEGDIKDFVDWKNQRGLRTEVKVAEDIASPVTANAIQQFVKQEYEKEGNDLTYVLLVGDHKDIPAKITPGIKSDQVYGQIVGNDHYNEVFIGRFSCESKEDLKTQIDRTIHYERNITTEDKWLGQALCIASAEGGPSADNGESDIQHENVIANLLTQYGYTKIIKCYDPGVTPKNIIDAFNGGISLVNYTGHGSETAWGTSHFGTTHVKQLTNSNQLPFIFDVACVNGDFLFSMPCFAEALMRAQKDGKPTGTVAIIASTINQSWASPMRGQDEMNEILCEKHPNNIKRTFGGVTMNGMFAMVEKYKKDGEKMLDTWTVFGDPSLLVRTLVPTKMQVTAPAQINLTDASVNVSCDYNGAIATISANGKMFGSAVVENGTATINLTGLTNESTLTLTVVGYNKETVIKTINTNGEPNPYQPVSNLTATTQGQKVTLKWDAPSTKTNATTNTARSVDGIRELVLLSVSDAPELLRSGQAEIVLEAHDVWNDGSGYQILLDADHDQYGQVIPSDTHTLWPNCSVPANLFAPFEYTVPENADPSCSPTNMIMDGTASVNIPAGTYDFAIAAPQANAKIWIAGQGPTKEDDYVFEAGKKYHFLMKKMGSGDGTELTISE

| Binder | OD450 nm |
| --- | --- |
| B1 | 0.789 |
| B2 | 0.823 and 0.767 |
| B3 | 0.771 |
| B4 | 0.814 |
| B5 | 0.759 |
| B6 | 0.74 |
| B7 | 0.825 |
| B8 | 0.794 |
| B9 | 0.639 and 0.698 |
| B10 | 0.757 |
| B11 | 0.769 and 0.739 and 0.77 |
| B12 | 0.724 |
| B13 | 0.776 |
| B14 | 0.769 |
| B15 | 0.74 |
| B16 | 0.728 |

These binders were tested against HRgpA-6H (Porphyromonas gingivalis) (UniProt P28784) (assay: ELISA, FASEBA screening, coated HRgpA-6H; variant OD over parental WT Fab OD).

| Binder | Ratio OD(Variant)/OD(WT) |
| --- | --- |
| B1 | 0.954 |
| B2 | 0.995 and 0.927 |
| B3 | 0.967 |
| B4 | 0.984 |
| B5 | 0.918 |
| B6 | 0.895 |
| B7 | 0.998 |
| B8 | 0.96 |
| B9 | 0.802 and 0.876 |
| B10 | 0.894 |
| B11 | 0.965 and 0.927 and 0.966 |
| B12 | 0.875 |
| B13 | 0.974 |
| B14 | 0.965 |
| B15 | 0.928 |
| B16 | 0.88 |

From patent US20240400654A1
